From article PMC12175901
pKd: −log10 of the molar value.

Tests used:
[1] = molecular target: HIV-1 capsid capsid (Human immunodeficiency virus 1) (UniProt O93182); details: cited from earlier work
[2] = molecular target: full-length BicD2 (zz-TEV-Halo-hBicD2^FL-6×His) (human) (UniProt Q8TD16); assay: TIRF microtubule recruitment assay; Nup358^min-zip labeled at 488 nm, full-length hBicD2, dynein and dynactin (1:1:2:2), 10 nM dynein; with all, or without dynein or BicD2; microtubules labeled with Alexa Fluor 647
Sequence of full-length BicD2 (zz-TEV-Halo-hBicD2^FL-6×His) (human) (Q8TD16 whole entry): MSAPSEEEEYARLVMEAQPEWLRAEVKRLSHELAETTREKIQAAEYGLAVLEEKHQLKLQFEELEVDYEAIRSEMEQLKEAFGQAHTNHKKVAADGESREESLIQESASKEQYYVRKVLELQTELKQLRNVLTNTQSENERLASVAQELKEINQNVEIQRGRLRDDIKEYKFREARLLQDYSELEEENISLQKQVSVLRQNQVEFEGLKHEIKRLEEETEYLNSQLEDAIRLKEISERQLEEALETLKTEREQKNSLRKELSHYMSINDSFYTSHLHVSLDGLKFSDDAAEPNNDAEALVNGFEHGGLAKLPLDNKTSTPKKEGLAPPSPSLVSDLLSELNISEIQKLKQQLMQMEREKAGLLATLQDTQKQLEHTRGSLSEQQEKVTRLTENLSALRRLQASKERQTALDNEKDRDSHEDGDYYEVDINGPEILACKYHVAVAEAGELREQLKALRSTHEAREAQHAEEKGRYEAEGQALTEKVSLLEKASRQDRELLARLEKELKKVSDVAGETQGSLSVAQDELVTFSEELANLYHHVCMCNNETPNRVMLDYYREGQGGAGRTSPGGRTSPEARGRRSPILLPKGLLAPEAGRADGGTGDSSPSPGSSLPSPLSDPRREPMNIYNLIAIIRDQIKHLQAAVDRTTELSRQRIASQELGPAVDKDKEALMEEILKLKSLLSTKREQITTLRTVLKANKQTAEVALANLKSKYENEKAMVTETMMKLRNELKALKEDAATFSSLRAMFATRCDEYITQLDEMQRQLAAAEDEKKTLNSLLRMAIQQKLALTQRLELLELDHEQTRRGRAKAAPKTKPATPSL

[3] = molecular target: recombinant human cytoplasmic dynein (full-length dynein complex) (human) (UniProt Q14204); assay: TIRF microtubule recruitment assay
[4] = molecular target: recombinant human cytoplasmic dynein (full-length dynein complex) (human) (UniProt Q14204); assay: single-molecule TIRF colocalization
[5] = molecular target: purified HIV-1 cores labelled with GFP-Vpr (HIV-1) (UniProt P12520); assay: TIRF fluorescence intensity against a standard curve
Sequence of purified HIV-1 cores labelled with GFP-Vpr (HIV-1) (P12520 whole entry, looked up): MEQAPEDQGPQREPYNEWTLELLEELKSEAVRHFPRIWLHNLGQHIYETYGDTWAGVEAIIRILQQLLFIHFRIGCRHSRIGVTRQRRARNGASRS

Sequence of purified HIV-1 cores labelled with GFP-Vpr (P12520 whole entry, looked up): as above
Sequence of HIV-1 capsid capsid (Human immunodeficiency virus 1) (O93182 133-363): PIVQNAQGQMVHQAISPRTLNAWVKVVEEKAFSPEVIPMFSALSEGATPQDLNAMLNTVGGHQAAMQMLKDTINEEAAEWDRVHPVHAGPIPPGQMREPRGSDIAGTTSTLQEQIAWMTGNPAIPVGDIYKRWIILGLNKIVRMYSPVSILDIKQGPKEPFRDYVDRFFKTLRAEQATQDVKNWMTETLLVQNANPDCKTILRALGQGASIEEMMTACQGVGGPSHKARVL
Sequence of CypA (P62937 2-165): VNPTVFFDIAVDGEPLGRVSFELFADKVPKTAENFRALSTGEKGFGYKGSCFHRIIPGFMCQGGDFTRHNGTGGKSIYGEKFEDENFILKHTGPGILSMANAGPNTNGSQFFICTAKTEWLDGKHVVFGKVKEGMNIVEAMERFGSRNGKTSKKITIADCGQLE

## CypA (from UniProt P62937)
[1]
  pKd: < 4.89

## Nup358^min-zip [hNup358(2148 to 2240)-GCN4-SnapTag] (from UniProt P49792 2148-2240)
[2]
  fold loss of microtubule recruitment when BicD2 is left out: 15 fold

## purified HIV-1 cores labelled with GFP-Vpr (from UniProt P12520 1-96) (complex)
[3]
  fold increase of cores on microtubules (with dynein, dynactin and BicD2^FL): 3.4 fold
[4]
  percent of microtubule-bound cores colocalized with dynein: 75.6%

## recombinant human cytoplasmic dynein (full-length dynein complex) (from UniProt Q14204 1-4646; Q13409 1-638; O43237 1-492; P63172 1-113; P63167 1-89; Q9NP97 1-96)
[5]
  stoichiometry N (dynein dimers per HIV-1 core): 11.6
